Measurements: article doi:10.1101/868190 (bioRxiv, 2019)
Ends that are not written are not given here.

Target: T1, His-hPPARγ (231-505) ligand-binding domain, wild-type (human, UniProt P37231-1 231-505)
T1 sequence: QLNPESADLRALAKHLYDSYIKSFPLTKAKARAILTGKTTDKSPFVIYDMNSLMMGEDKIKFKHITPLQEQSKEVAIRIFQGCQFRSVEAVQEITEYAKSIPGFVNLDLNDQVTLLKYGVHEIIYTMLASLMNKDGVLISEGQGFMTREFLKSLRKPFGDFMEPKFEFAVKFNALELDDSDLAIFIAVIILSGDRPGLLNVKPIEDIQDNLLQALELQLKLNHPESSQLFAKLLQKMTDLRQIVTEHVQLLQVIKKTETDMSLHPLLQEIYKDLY
Experiment: MST

Row | Binder | binding result
1 | NLGLEDIIRKALMG (also: fluorescent label, dye and position not given here) [fluorescent NCoR1 peptide (2260-NLGLEDIIRKALMG-2273)] | binds
2 | EAEEPSLLKKLLLAPA (also: fluorescent label, dye and position not given here) [fluorescent PGC1α peptide (137-EAEEPSLLKKLLLAPA-152)] | binds
